In patent US20130108609A1:

Target: Snapin, endogenous, in LNCaP cells (human) (UniProt O95295)
Test: cell-based or functional assay

UniProt O95295, sequence (O95295 2-136): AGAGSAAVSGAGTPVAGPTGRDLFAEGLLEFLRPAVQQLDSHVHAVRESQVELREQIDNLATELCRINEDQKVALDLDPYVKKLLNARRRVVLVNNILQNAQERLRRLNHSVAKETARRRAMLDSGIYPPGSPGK

human TMPAP stably expressed in LNCaP cells (LNCaP pMX TMPAP) (enzyme)
Pearson's correlation coefficient of co-localization (double immunofluorescence, cell lamellipodia only): 0.68 | Pearson's correlation coefficient of co-localization (double immunofluorescence, whole cell): 0.485
